Columns and labels:
Experiment in all cases: cell-based or functional assay
[1] = target: HIV-1 Env of isolate MGRM-D-003 (clade D pseudovirus) (HIV-1)
[2] = target: HIV-1 Env of pseudovirus MGRM-G-013 (HIV-1)
[3] = target: HIV-1 Env of isolate 93RW029 (clade A pseudovirus) (HIV-1)
[4] = target: HIV-1 MGRM-AG-003 Env (pseudovirus) (HIV-1)
[5] = target: HIV-1 Env of isolate MGRM-A-012 (clade A pseudovirus) (HIV-1)
[6] = target: HIV-1 Env of isolate PVO.4 (Acute), clade B (HIV-1)
[7] = target: HIV-1 isolate 94UG114 envelope glycoprotein (Env), clade D, on pseudovirus (HIV-1)
[8] = target: HIV-1 MGRM-AG-012 Env (pseudovirus) (HIV-1)
[9] = target: HIV-1 Env of pseudovirus MGRM-G-016 (HIV-1)
[10] = target: HIV-1 envelope glycoprotein (Env) of isolate MGRM-C-019 (HIV-1)
[11] = target: HIV-1 MGRM-AG-008 Env (pseudovirus) (HIV-1)
[12] = target: HIV-1 Env of isolate MGRM-D-016 (clade D pseudovirus) (HIV-1)
[13] = target: HIV-1 Env of isolate MGRM-A-010 (clade A pseudovirus) (HIV-1)
[14] = target: HIV-1 Env of isolate SC422661.8 (Acute), clade B (HIV-1)
[15] = target: HIV-1 envelope glycoprotein (Env) of isolate MGRM-C-020 (HIV-1)
[16] = target: HIV-1 Env of pseudovirus MGRM-F1-017 (clade F) (HIV-1)
[17] = target: HIV-1 Env of pseudovirus MGRM-F1-022 (clade F) (HIV-1)
[18] = target: HIV-1 92UG024 envelope (Env) on pseudovirus (HIV-1)
[19] = target: HIV-1 Env of isolate VLGCB3, clade B (HIV-1)
[20] = target: HIV-1 envelope glycoprotein (Env) of isolate MGRM-C-008 (HIV-1)
[21] = target: HIV-1 Env of isolate MGRM-A-014 (clade A pseudovirus) (HIV-1)
[22] = target: HIV-1 Env of pseudovirus MGRM-G-024 (HIV-1)
[23] = target: HIV-1 CMU02 envelope (Env) on pseudovirus (HIV-1)
[24] = target: HIV-1 Env of isolate MGRM-D-013 (clade D pseudovirus) (HIV-1)
[25] = target: HIV-1 envelope glycoprotein (Env) of isolate LAVIC_18 (HIV-1)
[26] = target: HIV-1 Env of pseudovirus MGRM-F1-008 (clade F) (HIV-1)

| Substance | IC50, pseudovirus neutralization [1] | IC50 (µg/ml), pseudovirus neutralization [2] | IC50 (µg/ml), pseudovirus neutralization [3] | IC50 (µg/ml), pseudovirus neutralization [4] | IC50 (µg/ml), pseudovirus neutralization [5] | IC50 (µg/ml), pseudovirus neutralization [6] | IC50 (µg/ml), pseudovirus neutralization [7] | IC50 (µg/ml), pseudovirus neutralization [8] | IC50 (µg/ml), pseudovirus neutralization [9] | IC50 (µg/ml), pseudovirus neutralization [10] | IC50 (µg/ml), pseudovirus neutralization [11] | IC50, pseudovirus neutralization [12] | IC50 (µg/ml), pseudovirus neutralization [13] | IC50 (µg/ml), pseudovirus neutralization [14] | IC50 (µg/ml), pseudovirus neutralization [15] | IC50 [16] | IC50 [17] | neutralization IC50 [18] | IC50 (µg/ml), pseudovirus neutralization [19] | IC50 (µg/ml), pseudovirus neutralization [20] | also measured |
| --- | --- | --- | --- | --- | --- | --- | --- | --- | --- | --- | --- | --- | --- | --- | --- | --- | --- | --- | --- | --- | --- |
| 2G12 (antibody) | > 50 µg/mL | > 50 µg/mL | > 50 µg/mL | > 50 µg/mL | > 50 µg/mL | 0.8 µg/mL | 13.9 µg/mL | 1.94 µg/mL | > 50 µg/mL | > 50 µg/mL | > 50 µg/mL | > 50 µg/mL | 17 µg/mL | 0.84 µg/mL | 18.6 µg/mL | > 50 µg/mL | > 50 µg/mL | 0.59 µg/mL | 7.9 µg/mL | > 50 µg/mL | IC50 (µg/ml), pseudovirus neutralization [21]: > 50 µg/mL; IC50 (µg/ml), pseudovirus neutralization [22]: > 50 µg/mL; neutralization IC50 [23]: > 50 µg/mL; IC50, pseudovirus neutralization [24]: > 50 µg/mL; IC50 (µg/ml), pseudovirus neutralization [25]: > 50 µg/mL; IC50 [26]: > 50 µg/mL |
| 2F5 (antibody) | > 50 µg/mL | 0.59 µg/mL | > 50 µg/mL | 0.14 µg/mL | 2.36 µg/mL | > 50 µg/mL | > 50 µg/mL | 0.33 µg/mL | 16.8 µg/mL | > 50 µg/mL | 0.54 µg/mL | 9.85 µg/mL | 20.8 µg/mL | > 50 µg/mL | > 50 µg/mL | > 50 µg/mL | 1.26 µg/mL | 1.27 µg/mL | > 50 µg/mL | > 50 µg/mL | IC50 (µg/ml), pseudovirus neutralization [21]: 1.43 µg/mL; IC50 (µg/ml), pseudovirus neutralization [22]: 1.07 µg/mL; neutralization IC50 [23]: 0.38 µg/mL; IC50, pseudovirus neutralization [24]: 2.12 µg/mL; IC50 (µg/ml), pseudovirus neutralization [25]: > 50 µg/mL; IC50 [26]: 1.61 µg/mL |

Source: patent publication US20240132578A1
